Reference: paper PMC10199020 (Nature Communications, 2023)
Where “and” joins values, the source holds several entries; their conditions need not be identical. Identical values can stand only once. Entries after “also recorded” stand apart in the source; their conditions may differ.

Assays:
[1] = tested on: STAT3 phosphorylation (Tyr705), IL23R + IL12Rβ1; assay: Phospho-STAT3 AlphaLISA Surefire Ultra assay, wildtype IL23R; assay type: cell-based, human; conditions: for Individual experimental means, phospho-STAT3 signal (Figure 6 panel b): IL-23 (5nM)
Source text: (§1) To test this, we created untagged and NanoLuc tagged versions of IL23R with the C115Y mutation. […] Using an intra-receptor NanoBRET assay to measure the basal association of receptor subunits (as previously described in Lay et al.[24]), we discovered that the […] mutant still associated with a fluorescently labelled HaloTag (HT) tagged IL12Rβ1 construct although this was reduced by 50.1% from the level of association measured for wildtype IL23R, a reduction consistent with the protein’s reduced total and surface expression (Fig. 6e).
Data are mean ± SEM from five or six (untagged) or three (NanoLuc tagged) independent experiments conducted in triplicate. For the IL23R + IL12Rβ1 data set, one outlier (11108.7) was detected using the Grubbs test (with alpha = 0.001) and removed from the statistical analysis. Statistical significance of the C115Y mutation on the alphaLISA data was assessed using a 2-way ANOVA with Tukey’s multiple comparison test. ***p < 0.001. The p value for the comparison of NL tagged construct response was 0.0001 and the p value for the comparison of untagged receptor was 0.951. c Luminescence signal measured when IL12Rβ1 was expressed with either NL-IL23R or the C115Y mutant. Data are mean ± SEM generated from the mean luminescence values of seven (C115Y) or eight independent experiments performed in pentuplicate. d The proportion of luminescence from c that emanated from extracellular protein (as defined by the reduction in luminescence after treatment with 60 μM NanoLuc extracellular inhibitor). Data are mean ± SEM generated from the mean luminescence values of five (C115Y) or six independent experiments performed in triplicate. e The BRET ratio generated from HaloTag-618 labelled cells expressing NL tagged wildtype or C115Y IL23R with HT-IL12Rβ1 or unlabelled IL12Rβ1. […] Statistical significance of differences in mean values shown in c–e were measured using a 2-sided, non-paired t test with ** indicating a p value of <0.005 and *** indicating a p value of <0.0005. […]

[2] = tested on: STAT3 phosphorylation (Tyr705), C115Y IL23R + IL12Rβ1; assay: Phospho-STAT3 AlphaLISA Surefire Ultra assay, C115Y IL23R; assay type: cell-based, human; conditions: for Mean, phospho-STAT3 signal (Figure 6 panel b): 5 nM IL-23; for Individual experimental means, phospho-STAT3 signal (Figure 6 panel b): IL-23 (5nM)
Source text: as §1
Data are mean ± SEM from five or six (untagged) or three (NanoLuc tagged) independent experiments conducted in triplicate. For the IL23R + IL12Rβ1 data set, one outlier (11108.7) was detected using the Grubbs test (with alpha = 0.001) and removed from the statistical analysis. Statistical significance of the C115Y mutation on the alphaLISA data was assessed using a 2-way ANOVA with Tukey’s multiple comparison test. ***p < 0.001. The p value for the comparison of NL tagged construct response was 0.0001 and the p value for the comparison of untagged receptor was 0.951. c Luminescence signal measured when IL12Rβ1 was expressed with either NL-IL23R or the C115Y mutant. Data are mean ± SEM generated from the mean luminescence values of seven (C115Y) or eight independent experiments performed in pentuplicate. d The proportion of luminescence from c that emanated from extracellular protein (as defined by the reduction in luminescence after treatment with 60 μM NanoLuc extracellular inhibitor). Data are mean ± SEM generated from the mean luminescence values of five (C115Y) or six independent experiments performed in triplicate. e The BRET ratio generated from HaloTag-618 labelled cells expressing NL tagged wildtype or C115Y IL23R with HT-IL12Rβ1 or unlabelled IL12Rβ1. Data are mean ± SEM generated from the mean BRET values of three independent experiments performed in pentuplicate. Statistical significance of differences in mean values shown in c–e were measured using a 2-sided, non-paired t test with ** indicating a p value of <0.005 and *** indicating a p value of <0.0005. The p values for the results shown in c, d and e were p = 0.148, 0.0005 and 0.0013 respectively. Source data are provided as a Source Data file.
Phosphorylation of STAT3 was measured using an AlphaLISA Surefire Ultra assay as previously described. Briefly, transfected HEK293T cells were plated into a poly-D-lysine coated 96 well tissue culture microplate and then incubated overnight. The following day media was replaced with serum free DMEM and the cells incubated for 3 h. […] An AlphaLISA SureFire Ultra assay kit (Perkin Elmer #ALSU-PST3) was then used to measure STAT3 phosphorylation at residue Tyr705. Assays were performed according to the manufacturers’ instructions.

[3] = target: T1, NL-IL23R and IL12Rβ1 (IL-23 receptor) on HEK293T cells (Homo sapiens, UniProt P42701+Q5VWK5); assay: IL23-TMR NanoBRET competition assay; assay type: binding; design: Inhibition of IL23-TMR binding (Mean): unit not given here; conditions: for Inhibition of IL23-TMR binding (Mean): 300 pM IL23-TMR
T1 construct: expressed in transfected cells; host or cells: HEK293T (ATCC CRL-3216), transient transfection
T1 sequence (Q5VWK5 24-629, other chains not shown): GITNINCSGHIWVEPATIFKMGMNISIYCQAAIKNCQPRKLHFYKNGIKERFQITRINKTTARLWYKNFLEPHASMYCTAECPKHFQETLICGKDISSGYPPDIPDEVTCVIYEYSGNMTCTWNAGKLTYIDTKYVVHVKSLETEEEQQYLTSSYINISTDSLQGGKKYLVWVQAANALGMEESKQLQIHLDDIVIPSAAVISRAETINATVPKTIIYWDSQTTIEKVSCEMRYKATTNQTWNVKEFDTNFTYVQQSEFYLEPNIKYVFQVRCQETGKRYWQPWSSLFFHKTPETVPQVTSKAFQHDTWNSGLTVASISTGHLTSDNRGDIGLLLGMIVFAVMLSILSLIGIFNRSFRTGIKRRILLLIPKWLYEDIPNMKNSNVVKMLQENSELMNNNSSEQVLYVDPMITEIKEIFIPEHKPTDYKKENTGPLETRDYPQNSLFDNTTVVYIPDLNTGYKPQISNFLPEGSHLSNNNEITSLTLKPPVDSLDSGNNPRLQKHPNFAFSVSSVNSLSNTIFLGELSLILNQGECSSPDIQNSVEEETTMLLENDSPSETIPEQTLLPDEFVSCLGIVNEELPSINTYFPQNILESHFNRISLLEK
Protocol: Schematic created with Biorender.com. IL23R is shown in orange, IL12Rβ1 in purple, IL23p19 in blue, IL12p40 in green and the presence of a TAMRA fluorophore by a pink star. […] In b and c, data are mean ± SEM from 5 independent experiments conducted in either duplicate or triplicate. Details on absolute number of data points included for each concentration are provided in the associated Source Data file.
(§2) Transient transfections for experiments outlined in Fig. 6 were conducted by seeding 100 μL of 2 × 10^5 cells/ml concentrated HEK293T cells into poly-D-lysine (PDL) coated white 96 well clear bottom assay microplates (Greiner) and incubating overnight. The following day transfection mixes were made up that contained a 4:1 ratio of IL23R to IL12Rβ1 constructs to a total concentration of 100 ng per well with a 0.3 μL per well of FuGENE HD transfection reagent (Promega) in OptiMEM (Gibco). These mixtures were incubated for 10 min before being added to the plate at 5 μL per well. The cells were then incubated overnight to allow expression. For all other experiments 2 mL containing 4 × 10^5 cells were seeded into 6 well plates and incubated 5 h before being transiently transfected with 100 μL per well of a transfection mix containing 2 μg of DNA and 6 μL of FuGENE HD. These cells were then incubated overnight before being re-suspended the following day and seeded into PDL coated white assay microplates at 100 μL containing 3 × 10^4 transfected cells. Cells were then incubated overnight before the experiment. Estimates of total expression levels for the different NL-constructs were made by comparing the luminescence levels achieved to that of a NanoLuciferase standard curve measured under the same conditions (Supplementary Fig. 1).
Media was removed from white 96-well microplates containing transfected cells and replaced with fluoroprobe in the presence or absence of antagonist in 50 μL Hanks Balanced Salt Solution (HBSS) with 1 mg/mL BSA (Merck).
(§3) Antagonist competition data were fit with the equation:4 Y=Bmin+Bmax−Bmin/1+10^(LogXC50−[A])C Where ‘Bmax’ is the maximum BRET signal, ‘Bmin’ is the minimum BRET signal, ‘LogXC50’ is the log of the 50% inhibiting concentration of antagonist, ‘[A]’ is the concentration of antagonist and ‘C’ is the Hill slope.

[4] = target: T1, NL-IL23R and IL12Rβ1 (IL-23 receptor) on HEK293T cells; assay: P630-TMR NanoBRET competition assay; assay type: binding; conditions: for Displacement of 75 nM P630-TMR (Mean): Fig. 5a
Protocol: as §2
Media was removed from white 96-well microplates containing transfected cells and replaced with fluoroprobe in the presence or absence of antagonist in 50 μL Hanks Balanced Salt Solution (HBSS) with 1 mg/mL BSA (Merck). After a 1-hour incubation at 37 °C without CO2, 5 μL of HBSS containing 77 μM furimizine was added to each well (final concentration 7 μM), the plate incubated for 5-minutes and the BRET signal measured using a PheraStar FS plate reader (BMG Labtech; data acquisition software version 5.41; MARS analysis software version 3.32) with a 450 ± 30 nm and >550 nm long pass filters.
as §3

IL-23: heterodimeric cytokine, disulphide linked complex of IL12p40 and IL23p19
Mean, phospho-STAT3 signal (Figure 6 panel b) ([1]; 5 nM IL-23, transfection NL-IL23R + IL12Rβ1, N 3): 5562.78
Individual experimental means, phospho-STAT3 signal (Figure 6 panel b) ([1]; transfection IL23R + IL12Rβ1): 2394 and 1760.67 and 1431.33 and 2064.67 and 2014
Individual experimental means, phospho-STAT3 signal (Figure 6 panel b) ([1]; transfection NL-IL23R + IL12Rβ1): 2330.67 and 6586.67 and 7771
Mean, phospho-STAT3 signal (Figure 6 panel b) ([2]; transfection IL23R (C115Y) + IL12Rβ1, N 6): 1388.06
Mean, phospho-STAT3 signal (Figure 6 panel b) ([2]; transfection NL-IL23R (C115Y) + IL12Rβ1, N 3): 1262.44
Individual experimental means, phospho-STAT3 signal (Figure 6 panel b) ([2]; transfection IL23R (C115Y) + IL12Rβ1): 1279.33 and 1494.67 and 1589.67 and 1247.67 and 1140 and 1577
Individual experimental means, phospho-STAT3 signal (Figure 6 panel b) ([2]; transfection NL-IL23R (C115Y) + IL12Rβ1): 760 and 1260.33 and 1767

TEEEQQLY [octapeptide reported to be a negative allosteric modulator (NAM) of the IL-23 receptor]
Inhibition of IL23-TMR binding (Mean) ([3]; [TEEEQQLY] -4.56864 logM): 13.433
Inhibition of IL23-TMR binding (Mean) ([3]; [TEEEQQLY] -5.04576 logM): 6.927
Inhibition of IL23-TMR binding (Mean) ([3]; [TEEEQQLY] -5.52288 logM): 9.9603
Inhibition of IL23-TMR binding (Mean) ([3]; [TEEEQQLY] -6 logM): 11.7979
Inhibition of IL23-TMR binding (Mean) ([3]; [TEEEQQLY] -6.47712 logM): 6.708
Inhibition of IL23-TMR binding (Mean) ([3]; [TEEEQQLY] -6.95424 logM): 2.6729
Inhibition of IL23-TMR binding (Mean) ([3]; [TEEEQQLY] -7.43136 logM): 2.475
Inhibition of IL23-TMR binding (Mean) ([3]; [TEEEQQLY] -7.90849 logM): 7.532
Displacement of IL23-TMR ([3]; NL-IL23R and IL12Rβ1): not to displace IL23-TMR; also recorded: Did not displace labelled probe
Displacement of 75 nM P630-TMR (Mean) ([4]; [TEEEQQLY] -4.09691 logM): -0.7672
Displacement of 75 nM P630-TMR (Mean) ([4]; [TEEEQQLY] -4.79588 logM): 3.824
Displacement of 75 nM P630-TMR (Mean) ([4]; [TEEEQQLY] -5.49485 logM): 1.157
Displacement of 75 nM P630-TMR (Mean) ([4]; [TEEEQQLY] -6.19382 logM): -2.412
Displacement of 75 nM P630-TMR (Mean) ([4]; [TEEEQQLY] -6.89279 logM): -1.937
Displacement of 75 nM P630-TMR (Mean) ([4]; [TEEEQQLY] -7.59176 logM): -4.432
Displacement of 75 nM P630-TMR (Mean) ([4]; [TEEEQQLY] -8.29073 logM): -0.4835
Displacement of 75 nM P630-TMR (Mean) ([4]; [TEEEQQLY] -8.9897 logM): -1.857
Displacement of P630-TMR ([4]; NL-IL23R and IL12Rβ1): did not displace P630-TMR; also recorded: Did not displace labelled probe
